According to PMC5487423 (2017):
Where a chain is given by its changes, count along the chain named. Read-outs that look alike come from different tables or passages of the source.

How the values were obtained:
Assay in all cases: BLI
CCL18_HUMAN = biological target: T1, CCL18_HUMAN (Homo sapiens)
T1 chain: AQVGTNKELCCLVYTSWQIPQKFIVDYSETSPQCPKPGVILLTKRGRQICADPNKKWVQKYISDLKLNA

CCL14_HUMAN = biological target: T2, CCL14_HUMAN (Homo sapiens)
T2 chain: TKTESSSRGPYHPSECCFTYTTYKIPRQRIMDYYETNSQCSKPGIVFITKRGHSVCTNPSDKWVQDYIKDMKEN

CCL4L1_HUMAN = biological target: T3, CCL4L1_HUMAN (Homo sapiens)
T3 chain: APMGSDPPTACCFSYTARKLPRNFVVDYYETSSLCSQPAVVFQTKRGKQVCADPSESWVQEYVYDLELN

CCL11 = CCL11 (human, UniProt P51671 24-97)
CCL2 = CCL2 (human, UniProt P13500 24-99)
CCL22_HUMAN = biological target: T4, CCL22_HUMAN (Homo sapiens)
T4 chain: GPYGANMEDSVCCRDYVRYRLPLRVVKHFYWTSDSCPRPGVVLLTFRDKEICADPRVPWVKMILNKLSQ

CCL3L1_HUMAN = biological target: T5, CCL3L1_HUMAN (Homo sapiens)
T5 chain: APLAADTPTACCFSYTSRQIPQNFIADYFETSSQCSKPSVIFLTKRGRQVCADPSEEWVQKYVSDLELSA

CCL4_HUMAN = biological target: T6, CCL4_HUMAN (Homo sapiens)
T6 chain: T3 chain with G47S

CCL7 = CCL7 (human, UniProt P80098 24-99)
CCL17_HUMAN = biological target: T7, CCL17_HUMAN (Homo sapiens)
T7 chain: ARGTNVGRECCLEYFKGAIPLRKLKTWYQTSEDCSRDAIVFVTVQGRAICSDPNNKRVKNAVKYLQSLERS

CCL24_HUMAN = biological target: T8, CCL24_HUMAN (Homo sapiens)
T8 chain: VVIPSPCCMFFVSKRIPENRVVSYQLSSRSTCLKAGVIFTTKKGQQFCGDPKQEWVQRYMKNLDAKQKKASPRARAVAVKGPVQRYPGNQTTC

CCL3 = biological target: T9, CCL3 (human, UniProt P10147 24-92)
T9 chain: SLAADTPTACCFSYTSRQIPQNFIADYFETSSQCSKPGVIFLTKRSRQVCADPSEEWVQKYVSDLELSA

CCL24_MOUSE = biological target: CCL24_MOUSE
CCL9_MOUSE = biological target: CCL9_MOUSE
CCL6_MOUSE = biological target: CCL6_MOUSE
CCL15_HUMAN [1] = biological target: CCL15_HUMAN
CCL23_HUMAN [2] = biological target: CCL23_HUMAN
CCL19_MOUSE = biological target: CCL19_MOUSE
CCL27_HUMAN [3] = biological target: CCL27_HUMAN
CCL27_MOUSE = biological target: CCL27_MOUSE
CCL8_MOUSE = biological target: CCL8_MOUSE
CCL12_MOUSE = biological target: CCL12_MOUSE
CCL15_HUMAN [4] = biological target: CCL15_HUMAN; remark: listed apart in the source
CCL23_HUMAN [5] = biological target: CCL23_HUMAN; remark: listed apart in the source
CCL27_HUMAN [6] = biological target: CCL27_HUMAN; remark: listed apart in the source

Sequence of CCL2 (P13500 24-99): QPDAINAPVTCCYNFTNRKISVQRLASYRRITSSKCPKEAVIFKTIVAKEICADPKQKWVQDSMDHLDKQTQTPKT
Sequence of CCL11 (P51671 24-97): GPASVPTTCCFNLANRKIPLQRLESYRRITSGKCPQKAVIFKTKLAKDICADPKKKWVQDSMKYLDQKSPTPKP
Sequence of CCL7 (P80098 24-99): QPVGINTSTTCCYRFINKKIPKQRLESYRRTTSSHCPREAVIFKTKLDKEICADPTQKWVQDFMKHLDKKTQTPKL

B1: P991_AMBCA, purified, C-terminal StrepII-8xHis tag (natural protein)
chain: ETGENGEGTTQPDYDNSTDYYNYEDFKCTCPAPHLNNTNGTVMKPIGCYYTCNVTRCTAPDTYPCYNLTEHQAKNLTTSPTTLCAVGNCDHGICVPNGTKELCFKAPNLEE
CCL18_HUMAN
  Kd: 0.21 nM
CCL14_HUMAN
  Kd: 0.43 nM
CCL4L1_HUMAN
  Kd: 0.83 nM
CCL11
  Kd: 3.4 nM
CCL2
  Kd: 12 nM
CCL22_HUMAN
  Kd: 4 nM
CCL3L1_HUMAN
  Kd: 1.4 nM
CCL4_HUMAN
  Kd: 5.8 nM
CCL7
  Kd: 0.51 nM
CCL17_HUMAN
  Kd: 7.7 nM
CCL24_HUMAN
  Kd: 6.5 nM
CCL3
  Kd: 1.1 nM
CCL24_MOUSE
  Kd: 3.16 nM
CCL9_MOUSE
  Kd: 13.3 nM
CCL6_MOUSE
  Kd: 1.52 nM
CCL15_HUMAN [1]
  Kd: 159 nM
CCL23_HUMAN [2]
  Kd: 5.58 nM
CCL19_MOUSE
  Kd: 4.81 nM
CCL27_HUMAN [3]
  Kd: 38.9 nM
CCL27_MOUSE
  Kd: 58 nM
CCL8_MOUSE
  Kd: 4.83 nM
CCL12_MOUSE
  Kd: 7.47 nM
CCL15_HUMAN [4]
  Kd: 160 nM
CCL23_HUMAN [5]
  Kd: 5.6 nM
CCL27_HUMAN [6]
  Kd: 39 nM
